What was measured:
[1] = molecular target: T1, Cep3 (Cep3 1-608, full-length) (Saccharomyces cerevisiae, UniProt P40969 1-608); experiment: EMSA
[2] = molecular target: Cep3Δ (lacks zinc cluster) (Saccharomyces cerevisiae, UniProt P40969 48-608); experiment: EMSA
[3] = molecular target: T1, Cep3 (Cep3 1-608, full-length); experiment: competition

T1 sequence (P40969 whole entry): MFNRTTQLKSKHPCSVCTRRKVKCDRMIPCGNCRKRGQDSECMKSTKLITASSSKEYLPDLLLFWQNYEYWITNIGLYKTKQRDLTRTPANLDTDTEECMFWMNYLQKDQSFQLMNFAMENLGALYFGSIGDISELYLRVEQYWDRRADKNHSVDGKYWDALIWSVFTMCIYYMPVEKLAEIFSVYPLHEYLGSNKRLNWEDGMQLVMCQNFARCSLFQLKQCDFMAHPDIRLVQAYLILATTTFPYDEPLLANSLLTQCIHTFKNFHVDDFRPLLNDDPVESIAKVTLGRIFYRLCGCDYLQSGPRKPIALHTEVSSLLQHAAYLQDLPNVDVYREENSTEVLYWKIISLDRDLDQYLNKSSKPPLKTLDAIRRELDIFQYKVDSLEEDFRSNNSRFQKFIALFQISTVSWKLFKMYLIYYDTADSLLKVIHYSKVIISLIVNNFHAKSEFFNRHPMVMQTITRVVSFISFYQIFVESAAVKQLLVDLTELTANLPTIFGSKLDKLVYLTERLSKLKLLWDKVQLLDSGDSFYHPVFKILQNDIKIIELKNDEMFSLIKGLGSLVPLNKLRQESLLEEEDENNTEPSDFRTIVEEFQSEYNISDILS
Sequence of Cep3Δ (lacks zinc cluster) (P40969 48-608, stated change not applied): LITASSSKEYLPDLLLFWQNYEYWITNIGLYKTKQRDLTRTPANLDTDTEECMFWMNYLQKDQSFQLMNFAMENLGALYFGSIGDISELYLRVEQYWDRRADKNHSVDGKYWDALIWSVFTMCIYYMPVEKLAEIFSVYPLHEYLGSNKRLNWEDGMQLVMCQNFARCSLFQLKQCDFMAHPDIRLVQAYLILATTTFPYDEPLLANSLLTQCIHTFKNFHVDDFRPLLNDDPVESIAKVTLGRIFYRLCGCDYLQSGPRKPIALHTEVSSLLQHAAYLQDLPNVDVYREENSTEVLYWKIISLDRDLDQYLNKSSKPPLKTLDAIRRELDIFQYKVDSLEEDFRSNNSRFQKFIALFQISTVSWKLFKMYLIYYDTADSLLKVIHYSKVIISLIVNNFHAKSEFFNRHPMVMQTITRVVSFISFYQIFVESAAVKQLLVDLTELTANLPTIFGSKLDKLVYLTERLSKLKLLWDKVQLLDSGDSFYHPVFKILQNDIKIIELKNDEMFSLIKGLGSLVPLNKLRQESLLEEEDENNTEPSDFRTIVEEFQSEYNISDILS

B1: native CDEIII probe (dsDNA)
DNA 1: AAATATTAGTGTATTTGATTTCCGAAAGTTAAA
DNA 2: TTTAACTTTCGGAAATCAAATACACTAATATTT
binding result [1]: binds
binding result [2]: no binding

B2: native CDEIII competitor (dsDNA)
DNA 1: AAATATTAGTGTATTTGATTTCCGAAAGTTAAA
DNA 2: TTTAACTTTCGGAAATCAAATACACTAATATTT
binding result [3]: binds

B3: site 2 mutant (dsDNA)
DNA 1: AAATATTAGAACTTTTGATTTCCGAAAGTTAAA
DNA 2: TTTAACTTTCGGAAATCAAAAGTTCTAATATTT
binding result [3]: binds

B4: site 1 mutant (dsDNA)
DNA 1: AAATATTAGTGTATTTGATTTGATAAAGTTAAA
DNA 2: TTTAACTTTATCAAATCAAATACACTAATATTT
binding result [3]: no binding
